Experimental data taken from article PMC5730846, “Tumor suppressor Tsc1 is a new Hsp90 co‐chaperone that facilitates folding of kinase and non‐kinase clients” (The EMBO Journal, 2017).

Target: the molecule itself
Assay: SEC; Tsc1-D-His6 concentrated to 10 mg/ml, Superdex 75 gel filtration

B1: Tsc1-D-His6 (domain or fragment, UniProt Q92574 998-1164, looked up)
chain: DGCSDSMVGHNEEASGHNGETKTPRPSSARGSSGSRGGGGSSSSSSELSTPEKPPHQRAGPFSSRWETTMGEASASIPTTVGSLPSSKSFLGMKARELFRNKSESQCDEDGMTSSLSESLKTELGKDLGVEAKIPLNLDGPHPSPPTPDSVGQLHIMDYNETHHEHS
notes: predicted monomer 22.1 kDa; dimer by gel filtration; also called fragment D; source: E. coli Tuner pLysS, purified (Ni-NTA)
stoichiometry N: 2
